Measured values: patent US20260209332A1 (SORRISO PHARMACEUTICALS, published 2026)
Each block holds one binder with its values, some of them ahead of it.

What was measured:
[1] = target: T1, interleukin-23 (IL-23) (UniProt Q9NPF7 20-189; P29460 23-328); assay: IL-23/IL-23R interference ELISA; blocked interaction: IL-23 with IL-23 receptor
T1 sequence (looked up) 1: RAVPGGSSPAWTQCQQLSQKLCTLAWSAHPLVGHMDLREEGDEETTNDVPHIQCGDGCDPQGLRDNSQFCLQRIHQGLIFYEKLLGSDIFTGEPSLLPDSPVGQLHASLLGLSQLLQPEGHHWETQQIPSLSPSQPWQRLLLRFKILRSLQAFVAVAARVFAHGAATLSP
T1 sequence (looked up) 2: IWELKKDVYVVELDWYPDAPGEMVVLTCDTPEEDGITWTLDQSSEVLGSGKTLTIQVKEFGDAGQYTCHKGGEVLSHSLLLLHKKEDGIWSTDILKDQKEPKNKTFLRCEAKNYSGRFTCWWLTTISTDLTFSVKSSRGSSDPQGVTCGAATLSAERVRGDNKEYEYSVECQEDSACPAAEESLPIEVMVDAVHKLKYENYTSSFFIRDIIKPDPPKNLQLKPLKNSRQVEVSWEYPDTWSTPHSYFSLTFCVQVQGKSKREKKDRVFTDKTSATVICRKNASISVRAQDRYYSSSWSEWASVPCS

[2] = target: T2, tumor necrosis factor alpha (TNF-alpha) (UniProt P01375 77-233); assay: competition ELISA on TNF-alpha; competitor: biotinylated adalimumab
T2 construct: Called a homo-trimeric protein in the general description
T2 sequence (P01375 77-233 limits assumed): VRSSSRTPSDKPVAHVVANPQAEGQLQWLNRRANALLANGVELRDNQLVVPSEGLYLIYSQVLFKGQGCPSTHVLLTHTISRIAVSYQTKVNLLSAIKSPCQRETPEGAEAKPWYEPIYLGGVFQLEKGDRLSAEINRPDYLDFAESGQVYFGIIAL

[3] = target: T1, interleukin-23 (IL-23); assay: IL-23/IL-23R interference ELISA; blocked interaction: IL-23 with IL-23 receptor; arm liberated by trypsin
[4] = target: T2, tumor necrosis factor alpha (TNF-alpha); assay: competition ELISA on TNF-alpha; competitor: biotinylated adalimumab; arm liberated by trypsin

B3: IL-23 inhibitor (anti-IL-23 single domain antibody, parent monomer) (VHH)
VHH: EVQLVESGGGQVQPGGSLSLSCESSVSIWSFKVMGWFRQVPGKQRELVATITTGGSPDYSDSVKGRFTISRDYDKRTLYLQMNSLKPEDTAVYYCAGRLWAHITSSGHDVWGQGTQVTVSS
notes: Produced in yeast; also called IL-23: D1E ID-L253T
IC50 (read off the curve) [1]: ~200 pM

B4: TNF-alpha inhibitor (anti-TNF-alpha single domain antibody, parent monomer) (VHH)
VHH: DVQLVESGGGLVQPGGSLKLSCAASGFDFSSHWMYWVRQAPGKELEWLSEINTNGLITHYGDSVKGRFTVSRNNAANKMYLELTRLEPEDTALYYCARNQHGLNKGQGTQVTVSS
notes: Produced and purified from yeast; also called ID-38F
IC50 (read off the curve) [2]: ~300 pM

B5: liberated anti-TNF-alpha monomer arm of TNF-alpha/IL-23 dual inhibitor (VHH)
VHH: B4 VHH
notes: Cleavage product; carries the remnant of the linker at its C-terminus; also called liberated-TNF
IC50 (read off the curve) [4]: ~200 pM

Second part, led by results:

IC50 (read off the curve) [1]: ~200 pM
B1: TNF-alpha/IL-23 dual inhibitor (bispecific anti-TNF-alpha/anti-IL-23 domain antibody) (bispecific antibody)
chain: DVQLVESGGGLVQPGGSLKLSCAASGFDFSSHWMYWVRQAPGKELEWLSEINTNGLITHYGDSVKGRFTVSRNNAANKMYLELTRLEPEDTALYYCARNQHGLNKGQGTQVTVSSGGGGSGGGGSKGGGGSGGGGSEVQLVESGGGQVQPGGSLSLSCESSVSIWSFKVMGWFRQVPGKQRELVATITTGGSPDYSDSVKGRFTISRDYDKRTLYLQMNSLKPEDTAVYYCAGRLWAHITSSGHDVWGQGTQVTVSS
notes: Produced and purified from yeast; also called FA1K
IC50 (read off the curve) [2]: ~200 pM

IC50 (read off the curve) [3]: ~100 pM
B2: liberated anti-IL-23 monomer arm of TNF-alpha/IL-23 dual inhibitor (VHH)
VHH: B3 VHH
notes: Cleavage product; carries the remnant of the linker at its N-terminus; also called liberated-IL-23
